In paper PMC9080080 (Cell Reports, 2022):

Biological target: SARS-CoV S2P protein (SARS-CoV, strain  (reference …, UniProt P59594, stabilised))
Experiment: SPR

B1: XMA09 (antibody, V domains shown)
VH: QVQLVQSGAEVKKPGSSVKVSCKASGGTFSSFAISWVRQAPGQGLEWMGGIIPIYGTANYAQKFQGRVTITADESTSTAYMDLSSLRSEDTAVYYCARDGSSTYYPHNWFDPWGQGTLVTVSS
VL: QSVLTQPPSVSGAPGQRVTISCTGSSSNIGSGYDVHWYQQLPGTAPKLLIYGNSNRPSGVPDRFSGSKSGTSASLAITGLQAEDEADYYCQSYDSSLSGVFGTGTKVTVL
  binding result: binds
